Results taken from patent US20210130436A1.
Residue numbers refer to the chain shown, from its start. Numbers in names are those of the source.

Tests used:
[1] = molecular target: T1, CD112R, Q6DKI7; assay: flow cytometry, cells expressing CD112R, 20 nM; conditions: remark: other sources report otherwise
T1 chain: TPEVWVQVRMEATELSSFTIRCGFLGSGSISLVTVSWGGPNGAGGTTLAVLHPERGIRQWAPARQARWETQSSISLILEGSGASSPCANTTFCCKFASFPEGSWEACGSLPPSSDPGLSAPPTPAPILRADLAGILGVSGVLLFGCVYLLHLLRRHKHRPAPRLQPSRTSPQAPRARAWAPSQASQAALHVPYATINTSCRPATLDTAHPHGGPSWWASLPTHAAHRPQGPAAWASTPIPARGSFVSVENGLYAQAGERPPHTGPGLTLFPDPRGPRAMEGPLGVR

[2] = molecular target: T2, CD96 (UniProt P40200); assay: flow cytometry, Fc fusion at 100 nM, CD96-transfected cells
T2 sequence (looked up): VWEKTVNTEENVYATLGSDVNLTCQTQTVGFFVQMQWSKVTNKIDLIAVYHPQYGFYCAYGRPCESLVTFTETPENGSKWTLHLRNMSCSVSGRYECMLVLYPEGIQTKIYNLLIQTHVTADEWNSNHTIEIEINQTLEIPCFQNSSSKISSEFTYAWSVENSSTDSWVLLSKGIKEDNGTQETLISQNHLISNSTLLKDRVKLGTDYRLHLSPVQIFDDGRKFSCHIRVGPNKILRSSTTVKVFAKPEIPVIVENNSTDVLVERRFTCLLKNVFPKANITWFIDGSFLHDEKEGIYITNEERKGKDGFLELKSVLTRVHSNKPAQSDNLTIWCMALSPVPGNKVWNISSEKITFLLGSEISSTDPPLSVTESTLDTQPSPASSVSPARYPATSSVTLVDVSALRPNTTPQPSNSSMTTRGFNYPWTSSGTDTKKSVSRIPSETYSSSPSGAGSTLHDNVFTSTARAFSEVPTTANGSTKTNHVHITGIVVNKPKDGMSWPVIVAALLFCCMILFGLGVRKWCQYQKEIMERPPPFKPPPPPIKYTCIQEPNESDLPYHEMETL

[3] = molecular target: T2, CD96; assay: flow cytometry, MFI ratio to WT CD155 ECD-Fc, CD96-transfected cells
[4] = molecular target: T3, CD226 (Homo sapiens (Human)) (UniProt Q15762); assay: flow cytometry on CD226-expressing cells, Fc fusion at 100 nM
T3 sequence: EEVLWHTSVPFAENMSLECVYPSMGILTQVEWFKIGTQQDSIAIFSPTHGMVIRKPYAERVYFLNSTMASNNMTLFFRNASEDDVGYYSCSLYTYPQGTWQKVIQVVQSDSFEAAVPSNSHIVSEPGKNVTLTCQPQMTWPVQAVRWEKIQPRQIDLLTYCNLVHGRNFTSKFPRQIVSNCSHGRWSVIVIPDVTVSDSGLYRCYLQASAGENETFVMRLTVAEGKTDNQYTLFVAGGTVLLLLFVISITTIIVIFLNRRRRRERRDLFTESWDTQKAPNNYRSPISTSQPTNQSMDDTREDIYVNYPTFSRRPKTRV

[5] = molecular target: human PD-L1, full length, expressed on transfected HEK293 cells (human) (UniProt Q9NZQ7); assay: flow cytometry, HEK293 cells transfected with human PD-L1
[6] = molecular target: PD-1 (PDCD1) (Homo sapiens (Human)) (UniProt Q15116); assay: cell-based or functional assay
Sequence of PD-1 (PDCD1) (Homo sapiens (Human)) (Q15116 21-288): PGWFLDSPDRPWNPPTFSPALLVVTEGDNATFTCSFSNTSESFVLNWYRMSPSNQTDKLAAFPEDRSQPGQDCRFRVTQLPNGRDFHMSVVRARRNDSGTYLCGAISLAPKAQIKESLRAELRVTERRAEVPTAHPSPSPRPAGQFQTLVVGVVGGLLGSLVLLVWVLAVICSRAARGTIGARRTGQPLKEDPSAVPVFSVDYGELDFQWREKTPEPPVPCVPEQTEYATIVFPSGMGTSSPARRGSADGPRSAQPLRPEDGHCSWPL

Sequence of human PD-L1, full length, expressed on transfected HEK293 cells (human) (Q9NZQ7 19-290): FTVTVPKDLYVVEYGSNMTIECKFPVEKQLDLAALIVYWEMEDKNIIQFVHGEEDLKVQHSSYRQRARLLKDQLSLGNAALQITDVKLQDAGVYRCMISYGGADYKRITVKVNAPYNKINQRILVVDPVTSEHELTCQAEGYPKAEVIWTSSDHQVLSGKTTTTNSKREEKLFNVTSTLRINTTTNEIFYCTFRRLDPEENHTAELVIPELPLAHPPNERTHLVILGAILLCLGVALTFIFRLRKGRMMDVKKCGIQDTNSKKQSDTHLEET

B1: WT CD112-Fc ECD, Q92692 32-360 (Fc fusion, not shown: a dimerising Fc or GST)
chain: QDVRVQVLPEVRGQLGGTVELPCHLLPPVPGLYISLVTWQRPDAPANHQNVAAFHPKMGPSFPSPKPGSERLSFVSAKQSTGQDTEAELQDATLALHGLTVEDEGNYTCEFATFPKGSVRGMTWLRVIAKPKNQAEAQKVTFSQDPTTVALCISKEGRPPARISWLSSLDWEAKETQVSGTLAGTVTVTSRFTLVPSGRADGVTVTCKVEHESFEEPALIPVTLSVRYPPEVSISGYDDNWYLGRTDATLSCDVRSNPEPTGYDWSTTSGTFPTSAVAQGSQLVIHAVDSLFNTTFVCTVTNAVGMGRAEQVIFVRETPNTAGAGATGG
Fold Increase to WT IgV [1]: 0.75 fold
MFI at 20 nM [1]: 1250

B2: variant CD155 IgV-Fc G111R (Fc fusion, not shown: a dimerising Fc or GST)
chain: WPPPGTGDVVVQAPTQVPGFLGDSVTLPCYLQVPNMEVTHVSQLTWARHGESGSMAVFHQTQGPSYSESKRLEFVAARLGAELRNASLRMFGLRVEDEGNYTCLFVTFPQRSRSVDIWLRVL
MFI at 100 nM [2]: 3320 MFI
Fold ↑ to WT ECD [3]: 0.03 fold

B3: CD155 P18S/T45S/T61K/S65W/S67A/F91S/G111R IgV-Fc (Fc fusion, not shown: a dimerising Fc or GST)
chain: B2 chain with P18S, T45S, T61K, S65W, S67A, F91S
MFI at 100 nM [4]: 2110 MFI

B4: variant CD80 IgV-Fc A12T/E24D/E35D/D46V/I61V/L72P/E95V (Fc fusion, not shown: a dimerising Fc or GST)
chain: VIHVTKEVKEVTTLSCGHNVSVEDLAQTRIYWQKDKKMVLTMMSGVMNIWPEYKNRTIFDVTNNLSIVILAPRPSDEGTYECVVLKYEKDAFKRVHLAEVTLSVKAD
MFI at 22.2 nM [5]: 1220 MFI

B5: PD-L2 I13V/H15Q/T47A/S67L/Q72H/R76G/Q82R/V89D IgV-Fc (Fc fusion, not shown: a dimerising Fc or GST)
chain: SEQLFTVTVPKELYIVEQGSNVTLECNFDTGSHVNLGAITASLQKVENDASPHRERATLLEEQLPLGKALFHIPHVQVGDEGQYRCIIIYGDAWDYKYLTLKVKA
Fold increase over wildtype PD-L2 IgV-Fc (IFN gamma, MLR) [6]: 1.13 fold
IFN gamma levels pg/mL (MLR) [6]: 1560 pg/mL
